Measured values published in US20210268016A1 (YALE UNIVERSITY, published 2021).

Biological target: biotinylated Aβ1-42 oligomers (Aßo) prepared from biotinylated synthetic Aβ1-42 peptide (human)
Assay: biolayer interferometry, biotinylated Aßo on streptavidin sensor

B1: recombinant full-length human PrP^C (AA23-231) (receptor)
chain: not shown
  binding result: binds
